This passage reports EC50 results from patent US20240254232A1 (SUNSHINE GUOJIAN PHARMACEUTICAL SHANGHAI, published 2024).

Test [1] addresses T1, LAG-3 extracellular segment recombinant protein with polyhistidine tag (LAG3-His) (UniProt P18627 23-450, limits assumed).
T1 construct: extracellular domain
T1 sequence (looked up): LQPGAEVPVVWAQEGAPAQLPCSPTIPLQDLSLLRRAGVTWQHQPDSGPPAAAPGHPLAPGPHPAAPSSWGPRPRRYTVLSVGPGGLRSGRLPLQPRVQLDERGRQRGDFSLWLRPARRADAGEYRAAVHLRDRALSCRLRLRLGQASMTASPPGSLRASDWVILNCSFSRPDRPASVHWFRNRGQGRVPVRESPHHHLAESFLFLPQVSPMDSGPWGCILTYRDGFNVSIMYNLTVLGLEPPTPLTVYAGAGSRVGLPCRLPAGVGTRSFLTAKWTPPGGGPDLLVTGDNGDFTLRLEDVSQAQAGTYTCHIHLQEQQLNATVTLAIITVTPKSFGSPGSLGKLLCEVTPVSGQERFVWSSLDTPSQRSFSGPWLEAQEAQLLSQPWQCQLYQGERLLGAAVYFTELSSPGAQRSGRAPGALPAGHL
In words: ELISA, LAG3-His coated at 10 ng/well, HRP anti-human Fc detection. The procedure: (§1) The ELISA detection method used in the following embodiments is described as follows: the corresponding recombinant protein is coated on the microplate, and the microplate is closed with PBST containing 1% bovine serum albumin (PBST is a phosphate buffer containing 0.05% Tween-20). The antibody to be tested was sequentially diluted and then transferred to the above recombinant protein-coated microplates, incubated at room temperature for half an hour and then washed, appropriately diluted HRP (Horseradish Peroxidase)-labeled goat anti-human antibody (Fc specific, purchased from Sigma) was incubated at room temperature for half an hour and then washed, and 100 μl of TMB (3,3′,5,5′-Tetramethylbenzidine) was added to each well.
(§2) Hereby, HER2 extracellular segment recombinant protein (referred to as HER2-His, purchased from Sino Biological Inc.), PD-1 extracellular segment recombinant protein (referred to as PD1-His, purchased from Sino Biological Inc.), and LAG-3 extracellular segment recombinant protein (referred to as LAG3-His, purchased from ACROBiosystems) with polyhistidine tags were coated on microplates at concentrations of 20 ng/well, 20 ng/well, and 10 ng/well, respectively.
Background: In an ELISA, binding on a coated surface is turned into a signal by an enzyme label.

The target of test [2] is T2, PD-1 extracellular segment recombinant protein with polyhistidine tag (PD1-His) (UniProt Q15116 25-170, limits assumed).
T2 construct: extracellular domain
T2 sequence (Q15116 25-170 limits assumed): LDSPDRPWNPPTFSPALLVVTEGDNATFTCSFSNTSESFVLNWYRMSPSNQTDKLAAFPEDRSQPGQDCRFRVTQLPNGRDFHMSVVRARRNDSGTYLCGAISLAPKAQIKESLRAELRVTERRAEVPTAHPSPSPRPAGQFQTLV
In words: ELISA, PD1-His coated at 20 ng/well, HRP anti-human Fc detection. On the procedure:
as §1, §2

In test [3] the target is T3, HER2 extracellular segment recombinant protein with polyhistidine tag (HER2-His) (UniProt P04626 23-652, limits assumed).
T3 construct: extracellular domain
In words: ELISA, HER2-His coated at 20 ng/well, HRP anti-human Fc detection. On the procedure:
as §1, §2

B1: 609-302-134-IgG4, hexavalent trispecific antibody against PD-1, HER-2 and LAG-3 (antibody)
heavy: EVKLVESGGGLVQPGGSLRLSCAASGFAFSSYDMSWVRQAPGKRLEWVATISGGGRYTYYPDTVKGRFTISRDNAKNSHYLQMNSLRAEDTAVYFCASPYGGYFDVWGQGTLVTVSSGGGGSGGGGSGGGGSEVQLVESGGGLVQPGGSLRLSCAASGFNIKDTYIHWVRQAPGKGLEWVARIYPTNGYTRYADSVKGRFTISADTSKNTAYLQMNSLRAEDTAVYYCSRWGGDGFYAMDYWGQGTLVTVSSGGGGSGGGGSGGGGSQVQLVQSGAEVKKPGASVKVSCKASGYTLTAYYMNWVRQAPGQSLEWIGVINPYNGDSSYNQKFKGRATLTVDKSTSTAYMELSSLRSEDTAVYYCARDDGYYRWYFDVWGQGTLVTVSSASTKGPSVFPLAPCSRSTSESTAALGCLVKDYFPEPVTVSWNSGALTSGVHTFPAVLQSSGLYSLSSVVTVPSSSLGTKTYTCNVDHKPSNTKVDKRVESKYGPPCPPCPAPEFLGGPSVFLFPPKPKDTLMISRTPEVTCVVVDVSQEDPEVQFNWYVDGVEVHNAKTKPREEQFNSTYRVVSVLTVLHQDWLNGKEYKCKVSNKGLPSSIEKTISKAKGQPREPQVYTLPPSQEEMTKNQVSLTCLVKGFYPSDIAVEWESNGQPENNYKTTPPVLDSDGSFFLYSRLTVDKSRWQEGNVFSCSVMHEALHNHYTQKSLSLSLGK
light 1: not shown
light 2: DIQMTQSPSSLSASVGDRVTITCRASQDIGSRLNWLQQKPGKSIKRLIYATSSLESGVPSRFSGSRSGSDYTLTISSLQPEDFATYYCLQSGSSPPTFGQGTKVEIKRTVAAPSVFIFPPSDEQLKSGTASVVCLLNNFYPREAKVQWKVDNALQSGNSQESVTEQDSKDSTYSLSSTLTLSKADYEKHKVYACEVTHQGLSSPVTKSFNRGEC
Usually EC50 stands for the midpoint of the concentration-response curve. Regarding B1, the EC50 came to 260 pM in test [1] and 125 pM in test [2].

B2: 609-302-(44CC)-134-IgG4, hexavalent trispecific antibody against PD-1, HER-2 and LAG-3 (antibody)
heavy: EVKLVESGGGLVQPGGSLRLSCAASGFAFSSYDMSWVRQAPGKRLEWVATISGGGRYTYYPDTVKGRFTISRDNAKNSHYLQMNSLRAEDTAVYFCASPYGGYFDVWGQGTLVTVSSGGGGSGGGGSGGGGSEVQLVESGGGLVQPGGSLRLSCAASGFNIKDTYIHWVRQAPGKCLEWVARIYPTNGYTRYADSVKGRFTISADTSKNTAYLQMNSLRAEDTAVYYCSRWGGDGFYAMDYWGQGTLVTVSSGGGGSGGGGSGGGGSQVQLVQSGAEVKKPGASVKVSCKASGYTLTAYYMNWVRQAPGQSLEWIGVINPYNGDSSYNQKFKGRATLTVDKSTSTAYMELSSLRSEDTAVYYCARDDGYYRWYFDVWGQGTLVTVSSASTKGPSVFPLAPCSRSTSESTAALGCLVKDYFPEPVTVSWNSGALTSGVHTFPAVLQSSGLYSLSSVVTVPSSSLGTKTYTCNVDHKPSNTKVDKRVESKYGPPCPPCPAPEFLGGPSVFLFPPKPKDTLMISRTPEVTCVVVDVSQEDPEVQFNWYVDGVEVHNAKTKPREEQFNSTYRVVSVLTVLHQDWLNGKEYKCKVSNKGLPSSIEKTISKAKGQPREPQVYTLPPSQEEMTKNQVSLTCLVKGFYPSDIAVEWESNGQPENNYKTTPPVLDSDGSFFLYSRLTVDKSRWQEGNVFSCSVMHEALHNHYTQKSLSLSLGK
light 1: not shown
light 2: DIQMTQSPSSLSASVGDRVTITCRASQDIGSRLNWLQQKPGKSIKRLIYATSSLESGVPSRFSGSRSGSDYTLTISSLQPEDFATYYCLQSGSSPPTFGQGTKVEIKRTVAAPSVFIFPPSDEQLKSGTASVVCLLNNFYPREAKVQWKVDNALQSGNSQESVTEQDSKDSTYSLSSTLTLSKADYEKHKVYACEVTHQGLSSPVTKSFNRGEC
In the case of B2, the EC50 in test [3] amounted to 355 pM; in test [1] it was 226 pM; in test [2], 91.1 pM.

B3: 609-302-(105CC)-134-IgG4, hexavalent trispecific antibody against PD-1, HER-2 and LAG-3 (antibody)
heavy: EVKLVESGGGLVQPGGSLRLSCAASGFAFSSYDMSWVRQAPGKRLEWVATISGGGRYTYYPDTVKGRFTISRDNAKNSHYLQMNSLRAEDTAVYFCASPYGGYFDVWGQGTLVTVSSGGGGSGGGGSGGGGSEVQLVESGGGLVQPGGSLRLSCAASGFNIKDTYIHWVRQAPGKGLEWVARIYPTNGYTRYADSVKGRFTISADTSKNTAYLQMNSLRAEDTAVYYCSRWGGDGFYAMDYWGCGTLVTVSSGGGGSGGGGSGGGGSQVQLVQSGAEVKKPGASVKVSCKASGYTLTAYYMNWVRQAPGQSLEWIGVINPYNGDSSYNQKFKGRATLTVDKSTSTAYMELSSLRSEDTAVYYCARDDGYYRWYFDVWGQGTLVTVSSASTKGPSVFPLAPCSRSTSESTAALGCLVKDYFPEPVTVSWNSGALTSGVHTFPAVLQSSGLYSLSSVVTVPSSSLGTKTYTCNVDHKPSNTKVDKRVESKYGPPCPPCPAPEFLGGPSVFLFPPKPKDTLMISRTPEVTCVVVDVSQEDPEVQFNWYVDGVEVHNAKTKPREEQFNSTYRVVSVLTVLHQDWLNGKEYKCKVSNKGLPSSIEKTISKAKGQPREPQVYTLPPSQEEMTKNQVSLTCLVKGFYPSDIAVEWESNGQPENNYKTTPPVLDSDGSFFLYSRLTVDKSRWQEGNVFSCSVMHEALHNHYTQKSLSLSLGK
light 1: not shown
light 2: DIQMTQSPSSLSASVGDRVTITCRASQDIGSRLNWLQQKPGKSIKRLIYATSSLESGVPSRFSGSRSGSDYTLTISSLQPEDFATYYCLQSGSSPPTFGQGTKVEIKRTVAAPSVFIFPPSDEQLKSGTASVVCLLNNFYPREAKVQWKVDNALQSGNSQESVTEQDSKDSTYSLSSTLTLSKADYEKHKVYACEVTHQGLSSPVTKSFNRGEC
For B3, the 50% effective concentration (EC50) in test [3] turned out to be 420 pM; in test [1], 286 pM; in test [2] it was 104 pM.

B4: 134-IgG4 (134 Hu IgG4-C91S), humanized monoclonal antibody against human LAG-3 (antibody, V domains shown)
VH: QVQLVQSGAEVKKPGASVKVSCKASGYTLTAYYMNWVRQAPGQSLEWIGVINPYNGDSSYNQKFKGRATLTVDKSTSTAYMELSSLRSEDTAVYYCARDDGYYRWYFDVWGQGTLVTVSS
VL: DIQMTQSPSSLSASVGDRVTITCRASQDIGSRLNWLQQKPGKSIKRLIYATSSLESGVPSRFSGSRSGSDYTLTISSLQPEDFATYYCLQSGSSPPTFGQGTKVEIKR
notes: also called Anti-LAG-3 antibody
Regarding B4, the EC50 in test [1] came to 122 pM.
